The data set concerns the target T1, Fc-CTL (mannose receptor CTLD4-7 fused to human IgG1 Fc) (Mus musculus, UniProt Q61830 Q61830:655-1212).
T1 chain: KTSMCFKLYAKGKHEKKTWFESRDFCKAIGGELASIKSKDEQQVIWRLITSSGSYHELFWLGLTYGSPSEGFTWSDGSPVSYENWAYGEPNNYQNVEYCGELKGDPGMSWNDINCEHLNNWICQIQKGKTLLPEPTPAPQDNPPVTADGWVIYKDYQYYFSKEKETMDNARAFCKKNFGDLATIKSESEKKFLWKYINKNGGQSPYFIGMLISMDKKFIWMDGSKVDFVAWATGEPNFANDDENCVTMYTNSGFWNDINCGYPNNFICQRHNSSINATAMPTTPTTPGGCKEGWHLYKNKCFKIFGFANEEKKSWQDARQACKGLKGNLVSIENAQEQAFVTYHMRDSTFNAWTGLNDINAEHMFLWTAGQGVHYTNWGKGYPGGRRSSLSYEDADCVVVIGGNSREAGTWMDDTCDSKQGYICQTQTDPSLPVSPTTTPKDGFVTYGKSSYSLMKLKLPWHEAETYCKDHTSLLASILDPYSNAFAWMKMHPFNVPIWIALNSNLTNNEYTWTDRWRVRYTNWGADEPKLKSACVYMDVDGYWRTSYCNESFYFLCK
Briefly: filter; 500 nM protein, PBS, 1 mM MgCl2, 1 mM CaCl2, BSA, 37 C; more than 2-fold higher than Fc-FN. Particulars: tags: human IgG1 Fc fusion; expressed in HEK293T from pIgplus-CTLD4-7; protein G purified; chain copies: 2; label: 5'-32P or 5'-ATTO 647N. Here is the method: Representative DNA sequences of each motif family (FIG. 14A-B), namely CTL #5, CTL #9, CTL #6 and CTL #16, and unique sequences CTL #1, #2, #3, #14 and #18 (FIG. 39) were chosen for further analysis. Therefore, their binding ability to Fc-CTL, Fc-FN and the IgG1 Fc protein tag was monitored by radioactive filter retention assay (FIG. 15). DNA was end labeled with ³²P and mixed with the corresponding proteins at a concentration of 500 nM. The mixtures were incubated in selection buffer for 30 minutes at 37° C. and applied on a nitrocellulose membrane. Finally, the amount of bound DNA was detected by autoradiography.

B1: CTL #5 (ssDNA)
DNA: GCTGTGTGACTCCTGCAATGCAATCTAGCTGACAATGGGGGGGAAGAATGTGGGTGGGTGGCAGCTGTATCTTGTCTCC
With B1, the binding result is “binds”.

Source of the values: patent publication US20210147847, “APTAMERS FOR TARGETED ACTIVATON OF T CELL-MEDIATED IMMUNITY” (Rheinische Friedrich-Wilhelms-Universitat Bonn, published 2021).
